Results as given in article PMC9729729, “Development of anti-membrane type 1-matrix metalloproteinase nanobodies as immunoPET probes for triple negative breast cancer imaging” (Frontiers in Medicine, 2022).

Columns and labels:
[1] = biological target: T1, catalytic domain of human MT1-MMP (residues 119-290) (Homo sapiens, UniProt P50281); assay: ELISA; monoclonal phage ELISA; MaxiSorp plates coated with CAT-MT1-MMP, MT2-MMP or MT3-MMP at 4°C overnight (BSA as negative control); culture supernatants with phages applied; anti-M13-HRP, OPD, OD490; details: one partner purified
T1 construct: membrane type 1-matrix metalloproteinase (MT1-MMP), human, catalytic domain, residues 119-290, expressed from pET3a; also called CAT-MT1-MMP; catalytic domain of membrane type 1-matrix metalloproteinase

[2] = biological target: T1, catalytic domain of human MT1-MMP …; assay: ELISA; MaxiSorp plates coated overnight at 4°C with CAT-MT1-MMP; blocked with 3% BSA in PBS; serial dilutions of nanobodies, 90 min at 37°C; HRP anti-HA mAb, TMB, OD450; details: both partners purified
[3] = biological target: extracellular domain (ed) of MT1-MMP, Ala21-Ser538, Arg108Pro (Homo sapiens (species ; …, UniProt P50281, Arg108Pro); assay: SPR; edMT1-MMP amine-coupled on a CM5 chip (104 RU); nanobody 16-250 nM, 3 min at 30 μl/min, 30 min dissociation; HBS-EP+ buffer; 25°C; Biacore X100; 1:1 binding model; details: both partners purified

Row | Binder | binding result [1] | binding result [2] | Kd [3] [nM]
1 | 3TPA14 displayed on phage (monoclonal phage clone) (VHH, also called 3TPA14 phage clone; source: E. coli TG1 with phagemid, VCS-M13 helper phage, culture supernatant) VHH: QVQLQESGGGLVQAGGSLRLSCAASGLILSGFSTGWFRQAPGKEREFLSTISSAGTRTYYADSVKGRFTISRDNAKNTVYLQMNRLKPEDAGVYYCTGYGRRSMPALRPEEWTYWGQGTQVTVSS | binds |  | 
2 | [^68Ga]Ga-NOTA-3TPA14 (VHH, also called radiolabeled-NOTA conjugate of 3TPA14; source: E. coli WK6 periplasm, purified, conjugated with p-SCN-Bn-NOTA and labelled with 68Ga, PD-10 purified) VHH: QVQLQESGGGLVQAGGSLRLSCAASGLILSGFSTGWFRQAPGKEREFLSTISSAGTRTYYADSVKGRFTISRDNAKNTVYLQMNRLKPEDAGVYYCTGYGRRSMPALRPEEWTYWGQGTQVTVSS |  | binds | 
3 | nanobody 3TPA14 (CDR3 group 1), purified (VHH, Llama-derived VHH selected by phage display against CAT-MT1-MMP; also called Nb 3TPA14; source: E. coli WK6 periplasm (pMECS), purified (IMAC HisTrap, SEC Superdex 75)) VHH: QVQLQESGGGLVQAGGSLRLSCAASGLILSGFSTGWFRQAPGKEREFLSTISSAGTRTYYADSVKGRFTISRDNAKNTVYLQMNRLKPEDAGVYYCTGYGRRSMPALRPEEWTYWGQGTQVTVSS |  | binds | 15.8 ± 0.3
4 | 3CMP75 displayed on phage (monoclonal phage clone) (VHH, also called 3CMP75 phage clone; source: E. coli TG1 with phagemid, VCS-M13 helper phage, culture supernatant) VHH: QVQLQESGGGLVQAGGSLRLSCTASGRTFSSNAMAWFRLAPGKEREFVAAISGNGGSTTYADSVKGRVTISRDNAKNTVYLHMSSLKPEDTAVYYCNQRNFGRDGTLGDYWGNGTQVTVSS | binds |  | 
5 | [^68Ga]Ga-NOTA-3CMP75 (VHH, also called radiolabeled-NOTA conjugate of 3CMP75; source: E. coli WK6 periplasm, purified, conjugated with p-SCN-Bn-NOTA and labelled with 68Ga, PD-10 purified) VHH: QVQLQESGGGLVQAGGSLRLSCTASGRTFSSNAMAWFRLAPGKEREFVAAISGNGGSTTYADSVKGRVTISRDNAKNTVYLHMSSLKPEDTAVYYCNQRNFGRDGTLGDYWGNGTQVTVSS |  | binds | 
6 | nanobody 3CMP75 (CDR3 group 6), purified (VHH, Llama-derived VHH selected by phage display against CAT-MT1-MMP; also called Nb 3CMP75; 2CMP75 (as printed in two methods paragraphs); source: E. coli WK6 periplasm (pMECS), purified (IMAC HisTrap, SEC Superdex 75)) VHH: QVQLQESGGGLVQAGGSLRLSCTASGRTFSSNAMAWFRLAPGKEREFVAAISGNGGSTTYADSVKGRVTISRDNAKNTVYLHMSSLKPEDTAVYYCNQRNFGRDGTLGDYWGNGTQVTVSS |  | binds | 35 ± 3
